Data from publication doi:10.1101/2021.02.22.432209.

Target: GST-PreScission-p62 FIR 4P (human) (UniProt Q13501)
Experiment: SPR

LC3B (1-125), His8-TEV-LC3B (from UniProt Q9GZQ8 1-120) (natural protein)
KD estimated from the kinetics of the sensorgrams: 80 nM
half life: 20 min
